# Target: Recombinant truncated NA protein from the A/Perth/16/2009 H3N2 strain of influenza virus (influenza A virus A/Perth/16/2009 (H3N2))
# Assay: SEC
substance,measurement,value
Recombinant truncated NA protein from the A/Perth/16/2009 H3N2 strain of influenza virus (enzyme),stoichiometry N,4
